Experimental data: patent US20200332017A1 (SALUBRIS CHENGDU BIOTECH, published 2020)
Read-outs that look alike come from different tables or passages of the source.

B1: mouse anti-CD40 monoclonal antibody C1C1 (antibody, V domains shown)
VH: EVKLVESGGGLVKPGASLKLSCAASGFTFSNYGMSWVRQNSDKRLEWVASISSGGDDTYYPDNVKGRCTISRENAKNTLYLEMSSLKTEDTALYYCTRAGGKAMDYWGQGTSVTVST
VL: DIVLTQSPATLSVIPGNSVSLSCRASQSIRDNLHWYQQKSHESPRLLINYASQSISGIPSRFSGSGSGTDFTLTINSVETEDFGIYFCQQFNSWPLTFGGGTKLELK
notes: those are used here for the chimeric antibody only; also called Mouse C1C1; mouse C1C1
B2: chimeric antibody C1C1 (antibody, human IgG1, kappa, V domains shown)
VH: B1 VH
VL: DIVLTQSPATLSVIPGNSVSLSCRASQSIRDNLHWYQQKSHESPRLLINYASQSISGIPSRFSGSGSGTDFTLTINSVETEDFGIYFCQQFNSWPLTFGGGTKLELKR
notes: also called chC1C1; chimeric C1C1

How the values were obtained:
[1] = molecular target: T1, human CD40-Fc protein (amino acid residue 21-193 of SEQ ID NO: 67 linked to N-terminus of amino acid residue … (human, biotin-labeled in the capture ELISA and in the benchmark blocking ELISA; unlabeled when coated in the ligand blocking ELISA); assay: ligand blocking ELISA: human CD40-Fc coated, antibody titrated, then biotin-labeled human CD40L-his (blocked ligand), streptavidin-HRP, OD(450-630)
T1 construct: also called biotin-labeled human CD40-Fc; human CD40-Fc-biotin
Method: (§1) Briefly, human CD40-Fc proteins (amino acid residue 21-193 of SEQ ID NO: 67 linked to N-terminus of amino acid residue 99-330 of SEQ ID NO.: 24) were coated on 96-well micro plates at 2 μg/mL in coating buffer (PBS) and incubated overnight at 4° C. The next day, plates were washed with wash buffer (PBS+0.05% Tween-20, PBST), and blocked with 5% w/v non-fatty milk in PBST for 2 hours at 37° C. Plates were then washed again using wash buffer.
(§2) Serially diluted the mouse anti-CD40 antibodies of the present invention or the controls (starting at 200 nM with a four-fold serial dilution) in 2.5% w/v non-fatty milk in PBST were prepared to the plates and incubated with the human CD40-Fc proteins at room temperature for 40 minutes. […] Plates were washed again. 100 μl/well of streptavidin conjugated HRP was added and incubated for 40 minutes at 37° C. Plates were washed again using wash buffer. Finally, TMB was added and the reaction was stopped using 1M H₂SO₄, and the absorbance was read at 450 nm. Data were analyzed using Graphpad Prism software and IC₅₀ values were reported.

[2] = molecular target: T2, full length human CD40 (uniprot # P25942-1) on the membrane of 293T-CD40 cells (human, UniProt P25942 21-277); assay: flow cytometry on 293T-CD40 cells
T2 construct: also called cell surface CD40
Method: (§3) 2×10⁵ cells per well in 96 well-plates were incubated with the mouse anti-CD40 antibodies or the controls of various concentrations in FACS buffer for 40 minutes on ice. […] Following an incubation of 40 minutes at 4° C. in dark, cells were washed three times and resuspended in FACS buffer. Fluorescence was measured using a Becton Dickinson FACS Canto II-HTS equipment and plotted against antibody concentration.

[3] = molecular target: T2, full length human CD40 (uniprot # …); assay: flow cytometry on 293T-CD40 cells, PE-labeled secondary antibody, MFI
Method: as §3

[4] = molecular target: T1, human CD40-Fc protein (amino acid …); assay: capture ELISA; antibody captured, biotin-labeled human CD40-Fc in solution
Method: (§4) Plates were washed 4 times with wash buffer (PBS+0.05% Tween-20, PBST) and then blocked with 200 μl/well blocking buffer (5% w/v non-fatty milk in PBST) for 2 hours at 37° C. […] After a final wash, plates were incubated with 100 μl/well ELISA substrate TMB (Innoreagents, Cat # TMB-S-002). The reaction was stopped in 15 minutes at 25° C. with 50 μl/well 1M H₂SO₄, and the absorbance was read at 450 nm and plotted against antibody concentration. Data were analyzed using Graphpad Prism software and EC₅₀ values were reported.

[5] = molecular target: T2, full length human CD40 (uniprot # …); assay: cell-based or functional assay
[6] = molecular target: T1, human CD40-Fc protein (amino acid …); assay: capture ELISA (antibody captured on coated anti-IgG F(ab')2, biotin-labeled human CD40-Fc in solution, streptavidin-HRP, OD(450-630))
Method: as §4

[7] = molecular target: T3, Human CD40-his protein (Acro biosystems, Cat # CD0-H5228) (human, UniProt P25942 21-193); assay: SPR, Biacore T200; antibody captured, antigen flowed; 1:1 Langmuir fit
T3 construct: Bought reagent; not shown: his tag
Text: (§5) Briefly, goat anti-mouse IgG (GE healthcare, Cat # BR100838, Mouse Antibody Capture Kit) was covalently linked to a CM5 or a Protein G chip (carboxy methyl dextran coated chip) via primary amines, using a standard amine coupling kit provided by Biacore (GE healthcare, Pittsburgh, Pa., USA). Un-reacted moieties on the biosensor surface were blocked with ethanolamine. […] Then, human CD40-his (Acro biosystems, Cat # CD0-H5228) or cynomolgus monkey CD40-his protein (Acro biosystems, Cat # CD0-052H6) in HBS EP buffer (provided by Biacore) was flowed onto the chip at a flow rate of 30 μL/min. The antigen-antibody association kinetics was followed for 2 minutes and the dissociation kinetics was followed for 10 minutes. The association and dissociation curves were fit to a 1:1 Langmuir binding model using BIA evaluation software.

[8] = molecular target: T1, human CD40-Fc protein (amino acid …); assay: competitive ELISA; coated human CD40-Fc, competitor biotin human CD40L-his
Method: as §1, §2

[9] = molecular target: T1, human CD40-Fc protein (amino acid …); assay: capture ELISA (antibody captured on coated goat anti-human IgG F(ab')2, biotin-labeled human CD40-Fc in solution, streptavidin-HRP, OD(450-630))
[10] = molecular target: T1, human CD40-Fc protein (amino acid …); assay: capture ELISA; antibody captured, biotin-labeled human CD40-Fc in solution; remark: listed apart in the source
Method: as §4

[11] = molecular target: T3, Human CD40-his protein (Acro …); assay: SPR, Biacore; antibody captured, human CD40-his flowed
Text: as §5

Row | Binder | IC50 (read off the curve) [1] | EC50 [2] | EC50 (read off the curve) [3] | EC50 [4] | Cell-based Reporter assay (EC50, nM) [5] | EC50 (read off the curve) [6] | Kd [7] | koff [7] | kon [7] | IC50 [8] | EC50 (read off the curve) [9] | EC50 [10] | Kd [11] | koff [11] | kon [11]
1 | B1 | ~5000 pM | 538 pM | ~500 pM | 190 pM | 3.65 nM | ~0.02 µg/mL | 217 pM | 0.000542 s⁻¹ | 2.49e+06 M⁻¹ s⁻¹ | 5190 pM |  |  |  |  | 
2 | B2 |  |  |  |  |  |  |  |  |  |  | ~0.03 µg/mL | 236 pM | 7090 pM | 0.00575 s⁻¹ | 810000 M⁻¹ s⁻¹
